Here are results for 31 molecules from patent US20170313756A1.

[ ]: non-standard residue; d: D form. The star is where a group is joined. dCha = N[C@H](CC1CCCCC1)C(=O)O; NH(CH2)3Ph = c1ccc(CCCN*)cc1 Some results are limits rather than exact numbers.

The chains are these.
B1: RI α-MSH analog 891 (peptide)
peptide: Ac-[dV][dP][dK]G[dW][dR][dCha][dH][dS][dI][dI][dS][dS]-NH2
SMILES: CC[C@@H](C)[C@@H](NC(=O)[C@@H](CO)NC(=O)[C@@H](Cc1c[nH]cn1)NC(=O)[C@@H](CC1CCCCC1)NC(=O)[C@@H](CCCNC(=N)N)NC(=O)[C@@H](Cc1c[nH]c2ccccc12)NC(=O)CNC(=O)[C@@H](CCCCN)NC(=O)[C@H]1CCCN1C(=O)[C@H](NC(C)=O)C(C)C)C(=O)N[C@@H](C(=O)N[C@H](CO)C(=O)N[C@H](CO)C(N)=O)[C@H](C)CC
B2: peptide 812 (peptide)
peptide: VPKGARFHEMSYS
modifications: N-terminal acetyl (Ac); C-terminal amide; D-isomers at all residues except Gly 4
B3: peptide 870 (peptide)
peptide: VPKGWRWHEMSYS
modifications: N-terminal acetyl (Ac); C-terminal amide; D-isomers at all residues except Gly 4
B4: peptide 861 (peptide)
peptide: VPKGXRFHEMSYS
modifications: N-terminal acetyl (Ac); C-terminal amide; 5-methoxy-D-Trp at 5; D-isomers at all residues except Gly 4
B5: peptide 882 (peptide)
peptide: Ac-[dW][dR]F[dH]-{1,6‑diaminohexane-stearyl}
B6: peptide 809 (peptide)
peptide: VPKGWRFAEMSYS
modifications: N-terminal acetyl (Ac); C-terminal amide; D-isomers at all residues except Gly 4
B7: peptide 847int (peptide)
peptide: H-[dV][dP][dK]G[dW][dR][dF][dH]-OH
SMILES: CC(C)[C@@H](N)C(=O)N1CCC[C@@H]1C(=O)N[C@H](CCCCN)C(=O)NCC(=O)N[C@H](Cc1c[nH]c2ccccc12)C(=O)N[C@H](CCCNC(=N)N)C(=O)N[C@H](Cc1ccccc1)C(=O)N[C@H](Cc1c[nH]cn1)C(=O)O
B8: peptide 867 (peptide)
peptide: VPKGWRXHEMSYS
modifications: N-terminal acetyl (Ac); C-terminal amide; 3-pyridyl-D-Alanine at 7; D-isomers at all residues except Gly 4
B9: peptide 879 (peptide)
peptide: VPKGWRFHEKSYS
modifications: N-terminal acetyl (Ac); C-terminal amide; D-isomers at all residues except Gly 4
B10: peptide 875 (peptide)
peptide: VPKGWRFHDMSYS
modifications: N-terminal acetyl (Ac); C-terminal amide; D-isomers at all residues except Gly 4
B11: peptide 847 (peptide)
peptide: H-[dV][dP][dK]G[dW][dR][dF][dH]-{NH(CH2)3Ph}
SMILES: CC(C)[C@@H](N)C(=O)N1CCC[C@@H]1C(=O)N[C@H](CCCCN)C(=O)NCC(=O)N[C@H](Cc1c[nH]c2ccccc12)C(=O)N[C@H](CCCNC(=N)N)C(=O)N[C@H](Cc1ccccc1)C(=O)N[C@H](Cc1c[nH]cn1)C(=O)NCCCc1ccccc1
B12: peptide 877 (peptide)
peptide: VPKGWRFHEXSYS
modifications: N-terminal acetyl (Ac); C-terminal amide; α-methyl-D-Met at 10; D-isomers at all residues except Gly 4
B13: peptide 858 (peptide)
peptide: VPXGWRFHEMSYS
modifications: N-terminal acetyl (Ac); C-terminal amide; D-Norleucine at 3; D-isomers at all residues except Gly 4
B14: peptide 860 (peptide)
peptide: VPKGXRFHEMSYS
modifications: N-terminal acetyl (Ac); C-terminal amide; 5-hydroxy-D-Trp at 5; D-isomers at all residues except Gly 4
B15: peptide 878 (peptide)
peptide: VPKGWRFHEXSYS
modifications: N-terminal acetyl (Ac); C-terminal amide; D-buthionine at 10; D-isomers at all residues except Gly 4
B16: peptide 880 (peptide)
peptide: Ac-[dV][dP][dK]G[dW][dR]F[dH][dS][dI][dI][dS][dS]-NH2
SMILES: CC[C@@H](C)[C@@H](NC(=O)[C@@H](CO)NC(=O)[C@@H](Cc1c[nH]cn1)NC(=O)[C@H](Cc1ccccc1)NC(=O)[C@@H](CCCNC(=N)N)NC(=O)[C@@H](Cc1c[nH]c2ccccc12)NC(=O)CNC(=O)[C@@H](CCCCN)NC(=O)[C@H]1CCCN1C(=O)[C@H](NC(C)=O)C(C)C)C(=O)N[C@@H](C(=O)N[C@H](CO)C(=O)N[C@H](CO)C(N)=O)[C@H](C)CC
B17: peptide 872 (peptide)
peptide: VPKGWRFREMSYS
modifications: N-terminal acetyl (Ac); C-terminal amide; D-isomers at all residues except Gly 4
B18: peptide 857 (peptide)
peptide: VPXGWRFHEMSYS
modifications: N-terminal acetyl (Ac); C-terminal amide; D-Ornithine at 3; D-isomers at all residues except Gly 4
B19: peptide 868 (peptide)
peptide: VPKGWRXHEMSYS
modifications: N-terminal acetyl (Ac); C-terminal amide; 2-thienyl-D-Alanine at 7; D-isomers at all residues except Gly 4
B20: peptide 807 (peptide)
peptide: VPKGWRFHEASYS
modifications: N-terminal acetyl (Ac); C-terminal amide; D-isomers at all residues except Gly 4
B21: peptide 859 (peptide)
peptide: VPKGXRFHEMSYS
modifications: N-terminal acetyl (Ac); C-terminal amide; 3-benzothienyl-D-Alanine at 5; D-isomers at all residues except Gly 4
B22: peptide 873 (peptide)
peptide: VPKGWRFWEMSYS
modifications: N-terminal acetyl (Ac); C-terminal amide; D-isomers at all residues except Gly 4
B23: peptide 811 (peptide)
peptide: VPKGWAFHEMSYS
modifications: N-terminal acetyl (Ac); C-terminal amide; D-isomers at all residues except Gly 4
B24: peptide 886 (peptide)
peptide: Ac-[dV][dP][dK]G[dW][dR][dF][dH][dS][dI][dI][dS][dS]-NH2
SMILES: CC[C@@H](C)[C@@H](NC(=O)[C@@H](CO)NC(=O)[C@@H](Cc1c[nH]cn1)NC(=O)[C@@H](Cc1ccccc1)NC(=O)[C@@H](CCCNC(=N)N)NC(=O)[C@@H](Cc1c[nH]c2ccccc12)NC(=O)CNC(=O)[C@@H](CCCCN)NC(=O)[C@H]1CCCN1C(=O)[C@H](NC(C)=O)C(C)C)C(=O)N[C@@H](C(=O)N[C@H](CO)C(=O)N[C@H](CO)C(N)=O)[C@H](C)CC
B25: peptide 871 (peptide)
peptide: VPKGWRXHEMSYS
modifications: N-terminal acetyl (Ac); C-terminal amide; 4-Nitro-D-Phe at 7; D-isomers at all residues except Gly 4
B26: peptide 890 (peptide)
peptide: VPKGWRXHEXSYS
modifications: N-terminal acetyl (Ac); C-terminal amide; D-Cha at 7; D-buthionine at 10; D-isomers at all residues except Gly 4
B27: peptide 808 (peptide)
peptide: VPKGWRFHAMSYS
modifications: N-terminal acetyl (Ac); C-terminal amide; D-isomers at all residues except Gly 4
B28: peptide 869 (peptide)
peptide: VPKGWRXHEMSYS
modifications: N-terminal acetyl (Ac); C-terminal amide; D-cyclohexylalanine (D-Cha) at 7; D-isomers at all residues except Gly 4
B29: peptide 862-b (peptide)
peptide: VPKGFRFHEMSYS
modifications: N-terminal acetyl (Ac); C-terminal amide; D-isomers at all residues except Gly 4
B30: peptide 865 (peptide)
peptide: VPKGWHFHEMSYS
modifications: N-terminal acetyl (Ac); C-terminal amide; D-isomers at all residues except Gly 4
B31: peptide 883 (peptide)
peptide: Ac-[dW][dR]F[dH]-NH2

mouse MC1R (on murine B16-F1 melanoma cells) (mouse), sequence (Q01727 whole entry): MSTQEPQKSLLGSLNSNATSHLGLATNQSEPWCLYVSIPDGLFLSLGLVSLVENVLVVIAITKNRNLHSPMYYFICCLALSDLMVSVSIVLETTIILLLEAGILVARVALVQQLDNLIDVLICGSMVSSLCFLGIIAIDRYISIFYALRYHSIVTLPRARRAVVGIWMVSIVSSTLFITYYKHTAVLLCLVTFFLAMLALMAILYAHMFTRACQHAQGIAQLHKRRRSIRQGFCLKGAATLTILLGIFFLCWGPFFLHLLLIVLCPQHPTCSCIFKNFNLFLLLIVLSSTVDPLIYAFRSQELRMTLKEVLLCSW

One experiment has as its target mouse MC1R (on murine B16-F1 melanoma cells) (mouse) (UniProt Q01727). The experiment is described as follows: cell-based or functional assay.
B1 came in with an EC50, cAMP in B16-F1 cells of 81 nM.

In the next experiment the target is melanocortin 1 receptor (MC1R) (UniProt Q01726). Nature of the experiment: 125I-NDP-MSH competition, HEK293 membranes.
melanocortin 1 receptor (MC1R), sequence (Q01726 whole entry): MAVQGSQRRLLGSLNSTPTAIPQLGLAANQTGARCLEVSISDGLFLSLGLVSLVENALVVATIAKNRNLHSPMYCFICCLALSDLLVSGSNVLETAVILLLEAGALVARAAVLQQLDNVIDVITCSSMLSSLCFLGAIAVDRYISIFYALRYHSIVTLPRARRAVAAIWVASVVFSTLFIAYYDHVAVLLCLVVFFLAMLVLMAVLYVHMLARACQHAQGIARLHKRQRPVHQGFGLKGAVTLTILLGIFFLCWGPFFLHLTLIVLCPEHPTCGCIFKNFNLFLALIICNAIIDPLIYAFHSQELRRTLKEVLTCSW
One may read the Ki as a dissociation constant, usually derived from enzyme kinetics or from competition with a known ligand. B2: the Ki was found to be 3000 nM.

Regarding B3, the inhibitory constant (Ki) was determined as 2500 nM.

Turning to B4, the Ki was found to be 75 nM.

In the case of B5, the Ki came out at 120 nM.

On to B1, for which the inhibition constant Ki is 0.43 nM.

The molecule B6 returned a Ki of 1200 nM.

On to B7, for which the Ki came out at 150 nM.

The molecule B8 registered a Ki of 480 nM.

B9 registered a Ki of 832 nM.

For the molecule B10, the Ki was determined as 400 nM.

Take B11: the Ki worked out at 104 nM.

For the molecule B12, the Ki was 282 nM.

As for B13, the inhibition constant (Ki) came out at 18 nM.

In turn, B14 displayed a Ki of 96 nM.

B15 showed a Ki of 2.3 nM.

In turn, B16 gave a Ki of 1.8 nM.

For B17, the inhibitory constant (Ki) stood at 13.5 nM.

In turn, B18 gave an inhibition constant Ki of 3 nM.

Molecule B19 registered a Ki of 5.4 nM.

With B20, the inhibition constant Ki amounted to 1400 nM.

Turning to B21, the inhibition constant (Ki) was found to be 206 nM.

Regarding B22, the Ki amounted to 1900 nM.

In the case of B23, the Ki was 13000 nM.

Molecule B24 yielded an inhibition constant Ki of 1 nM.

In turn, B25 showed an inhibitory constant (Ki) of 324 nM.

B26 had a Ki of 1.9 nM.

B27: the Ki amounted to 2.5 nM.

The molecule B28 returned a Ki of 2.2 nM.

Regarding B29, the Ki is 128 nM.

Turning to B30, the Ki worked out at 2300 nM.

In the next experiment the target is melanocortin 3 receptor (MC3R) (UniProt P41968). The experiment is described as follows: 125I-NDP-MSH competition, HEK293 membranes.
melanocortin 3 receptor (MC3R), sequence (P41968 whole entry): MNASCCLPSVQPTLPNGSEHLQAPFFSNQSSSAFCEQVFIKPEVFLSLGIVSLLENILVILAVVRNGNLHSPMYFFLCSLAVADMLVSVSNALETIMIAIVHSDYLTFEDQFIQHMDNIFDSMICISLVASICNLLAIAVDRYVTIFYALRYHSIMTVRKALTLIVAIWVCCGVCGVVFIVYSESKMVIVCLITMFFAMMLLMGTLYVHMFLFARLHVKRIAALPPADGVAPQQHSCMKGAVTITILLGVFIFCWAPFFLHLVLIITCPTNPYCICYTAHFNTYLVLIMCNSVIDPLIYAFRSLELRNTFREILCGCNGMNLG
Molecule B1 yielded a Ki of 8000 nM.

Regarding B15, the inhibitory constant (Ki) came to 40000 nM.

The molecule B16 yielded a Ki of 18000 nM.

Regarding B24, the Ki is 19000 nM.

For B26, the inhibition constant Ki came out at 15000 nM.

Another experiment deals with melanocortin 4 receptor (MC4R) (UniProt P32245). The experiment is described as follows: 125I-NDP-MSH competition, HEK293 membranes.
melanocortin 4 receptor (MC4R), sequence (P32245 whole entry): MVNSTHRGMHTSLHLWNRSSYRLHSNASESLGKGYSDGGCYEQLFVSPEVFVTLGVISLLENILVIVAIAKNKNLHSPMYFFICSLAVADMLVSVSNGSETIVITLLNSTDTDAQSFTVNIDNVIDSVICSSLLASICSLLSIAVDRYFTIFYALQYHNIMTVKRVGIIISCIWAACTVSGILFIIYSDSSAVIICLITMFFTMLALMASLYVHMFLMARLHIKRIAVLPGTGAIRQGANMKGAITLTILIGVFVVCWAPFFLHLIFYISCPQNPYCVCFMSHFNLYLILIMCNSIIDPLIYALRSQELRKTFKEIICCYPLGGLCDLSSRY
B1 gave an inhibitory constant (Ki) of 3200 nM.

In turn, B16 displayed an inhibition constant Ki of 10000 nM.

With B24, the inhibition constant (Ki) amounted to 10000 nM.

Molecule B26 returned an inhibition constant (Ki) of 14000 nM.

For the next experiment, the target named is melanocortin 5 receptor (MC5R) (UniProt P33032). The experiment is described as follows: 125I-NDP-MSH competition, HEK293 membranes.
melanocortin 5 receptor (MC5R), sequence (P33032 whole entry): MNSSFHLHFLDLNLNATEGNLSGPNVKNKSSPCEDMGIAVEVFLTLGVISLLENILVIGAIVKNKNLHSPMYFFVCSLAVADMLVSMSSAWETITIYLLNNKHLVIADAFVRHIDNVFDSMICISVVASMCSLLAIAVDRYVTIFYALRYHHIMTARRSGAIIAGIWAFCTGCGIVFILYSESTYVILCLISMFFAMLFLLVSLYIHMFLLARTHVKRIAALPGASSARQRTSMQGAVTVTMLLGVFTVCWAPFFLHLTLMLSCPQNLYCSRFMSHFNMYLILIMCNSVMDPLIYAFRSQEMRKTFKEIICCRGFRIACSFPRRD
As to B1, the Ki was determined as 2500 nM.

Molecule B15 showed a Ki of 30000 nM.

The molecule B24 came in with an inhibition constant Ki of 20000 nM.

The molecule B26 registered a Ki of 4500 nM.

In the case of B28, the Ki came out at 25000 nM.

For another experiment, the target named is melanocortin 1 receptor (MC1R) (UniProt Q01726). The experiment is described as follows: 125I-NDP-MSH competition, HEK293 membranes. The source holds these as a separate data set.
In turn, B5 displayed a fold improvement of binding over wrFh above 250 fold.

B31 displayed a Ki above 30000 nM.

Consider B11, for which the Ki was 150 nM.
